Test results taken from PMC3563353 (2012).
Square brackets hold non-standard residues; d marks the D form. Primed or numbered codes have the meaning given here. Side chains are listed from the residue outwards. * marks the point of attachment. IRDye800CW′ = near-infrared fluorescent dye (LiCor), attached as the maleimide; Cy5 = Cy5 near-infrared fluorescent dye; Butanoyl(4-Ph) = O=C(CCCc1ccccc1)*; Mpa = O=C(O)CCS

Tests used:
MC1RL-800 = target: T1, MC1RL-800; experiment: competition binding with Eu-NDP-α-MSH on A375/hMC1R cells
T1 chain: {Butanoyl(4-Ph)}-H[dF]RWGK([Mpa-IRDye800CW′])-NH2

MC1RL-Cy5 = target: T2, MC1RL-Cy5; experiment: as above
T2 chain: {Butanoyl(4-Ph)}-H[dF]RWGK([Mpa-Cy5])-NH2

Ki (MC1RL-800): 0.4 nM
Ki (MC1RL-Cy5): 0.3 nM
B1: MC1R (protein)
chain: MAVQGSQRRLLGSLNSTPTAIPQLGLAANQTGARCLEVSISDGLFLSLGLVSLVENALVVATIAKNRNLHSPMYCFICCLALSDLLVSGSNVLETAVILLLEAGALVARAAVLQQLDNVIDVITCSSMLSSLCFLGAIAVDRYISIFYALRYHSIVTLPRARRAVAAIWVASVVFSTLFIAYYDHVAVLLCLVVFFLAMLVLMAVLYVHMLARACQHAQGIARLHKRQRPVHQGFGLKGAVTLTILLGIFFLCWGPFFLHLTLIVLCPEHPTCGCIFKNFNLFLALIICNAIIDPLIYAFHSQELRRTLKEVLTCSW
